Measurements as given in patent US20230139516.

Target: 6×His-c-Myc, P01106
Sequence (P01106 16-454): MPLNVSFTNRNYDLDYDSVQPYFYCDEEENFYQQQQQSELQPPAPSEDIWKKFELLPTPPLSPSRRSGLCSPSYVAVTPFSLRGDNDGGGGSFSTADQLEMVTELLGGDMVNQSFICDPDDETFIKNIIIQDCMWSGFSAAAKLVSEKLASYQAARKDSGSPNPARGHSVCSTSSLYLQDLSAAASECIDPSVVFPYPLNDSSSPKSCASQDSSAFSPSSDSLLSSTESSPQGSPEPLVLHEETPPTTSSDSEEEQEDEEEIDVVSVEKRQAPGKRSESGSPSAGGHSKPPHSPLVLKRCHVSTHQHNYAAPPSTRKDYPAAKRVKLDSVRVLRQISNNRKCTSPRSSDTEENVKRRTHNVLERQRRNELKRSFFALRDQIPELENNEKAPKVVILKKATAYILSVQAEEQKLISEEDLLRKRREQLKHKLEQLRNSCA

B1: GST-MKK7 (protein)
chain: MAASSLEQKLSRLEAKLKQENREARRRIDLNLDISPQRPRPTLQLPLANDGGSRSPSSESSPQHPTPPARPRHMLGLPSTLFTPRSMESIEIDQKLQEIMKQTGYLTIGGQRYQAEINDLENLGEMGSGTCGQVWKMRFRKTGHVIAVKQMRRSGNKEENKRILMDLDVVLKSHDCPYIVQCFGTFITNTDVFIAMELMGTCAEKLKKRMQGPIPERILGKMTVAIVKALYYLKEKHGVIHRDVKPSNILLDERGQIKLCDFGISGRLVDSKAKTRSAGCAAYMAPERIDPPDPTKPDYDIRADVWSLGISLVELATGQFPYKNCKTDFEVLTKVLQEEPPLLPGHMGFSGDFQSFVKDCLTKDHRKRPKYNKLLEHSFIKRYETLEVDVASWFKDVMAKTESPRTSGVLSQPHLPFFR
- in vitro kinase assay, immunoblot for p-c-Myc-Ser62: recombinant MKK7 could directly phosphorylate c-Myc-Ser62
